# Assay results: paper PMC6408259
# T1: DJ-1 (human (endogenous in M17D neuroblastoma cells)), Q99497
# T1 chain: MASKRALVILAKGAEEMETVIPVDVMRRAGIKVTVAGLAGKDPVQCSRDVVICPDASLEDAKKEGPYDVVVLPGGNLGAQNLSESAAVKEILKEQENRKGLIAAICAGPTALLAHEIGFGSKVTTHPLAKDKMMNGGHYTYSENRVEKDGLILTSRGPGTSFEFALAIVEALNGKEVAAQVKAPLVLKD
# Molecular target: T1, DJ-1 (human (endogenous in M17D …))
# Test: cross-linking
# Details: remark: other sources report otherwise
binder,measurement,value
"DJ-1, Q99497 1-189 (natural protein) MASKRALVILAKGAEEMETVIPVDVMRRAGIKVTVAGLAGKDPVQCSRDVVICPDASLEDAKKEGPYDVVVLPGGNLGAQNLSESAAVKEILKEQENRKGLIAAICAGPTALLAHEIGFGSKVTTHPLAKDKMMNGGHYTYSENRVEKDGLILTSRGPGTSFEFALAIVEALNGKEVAAQVKAPLVLKD",stoichiometry N,2
